Laboratory results reported in paper PMC5182059.
Where a chain is given by its changes, count along the chain named. Names and notes keep the numbering of the source.

B1: Ric-8A (1-491) P466A (domain or fragment)
chain: MEPRAVADALETGEEDAVTEALRSFNREHSQSFTFDDAQQEDRKRLAKLLVSVLEQGLSPKHRVTWLQTIRILSRDRSCLDSFASRQSLHALACYADIAISEEPIPQPPDMDVLLESLKCLCNLVLSSPTAQMLAAEARLVVRLAERVGLYRKRSYPHEVQFFDLRLLFLLTALRTDVRQQLFQELHGVRLLTDALELTLGVAPKENPLVILPAQETERAMEILKVLFNITYDSVKREVDEEDAALYRYLGTLLRHCVMADAAGDRTEEFHGHTVNLLGNLPLKCLDVLLALELHEGSLEFMGVNMDVINALLAFLEKRLHQTHRLKECVAPVLSVLTECARMHRPARKFLKAQVLPPLRDVRTRPEVGDLLRNKLVRLMTHLDTDVKRVAAEFLFVLCSESVPRFIKYTGYGNAAGLLAARGLMAGGRPEGQYSEDEDTDTEEYREAKASINPVTGRVEEKPPNAMEGMTEEQKEHEAMKLVNMFDKLSR
B2: Ric-8A (1-491) E468A (domain or fragment)
chain: B1 chain with A466P, E468A
B3: Ric-8A (1-491) M467A (domain or fragment)
chain: B1 chain with A466P, M467A
B4: Ric-8A (1-491) V455A (domain or fragment)
chain: B1 chain with V455A, A466P
B5: Ric-8A (1-491) T456A (domain or fragment)
chain: B1 chain with T456A, A466P
B6: Ric-8A (1-491) P454A (domain or fragment)
chain: B1 chain with P454A, A466P
B7: Ric-8A (1-491) G469A (domain or fragment)
chain: B1 chain with A466P, G469A
B8: (1-452)Ric-8A truncation mutant (domain or fragment)
chain: MEPRAVADALETGEEDAVTEALRSFNREHSQSFTFDDAQQEDRKRLAKLLVSVLEQGLSPKHRVTWLQTIRILSRDRSCLDSFASRQSLHALACYADIAISEEPIPQPPDMDVLLESLKCLCNLVLSSPTAQMLAAEARLVVRLAERVGLYRKRSYPHEVQFFDLRLLFLLTALRTDVRQQLFQELHGVRLLTDALELTLGVAPKENPLVILPAQETERAMEILKVLFNITYDSVKREVDEEDAALYRYLGTLLRHCVMADAAGDRTEEFHGHTVNLLGNLPLKCLDVLLALELHEGSLEFMGVNMDVINALLAFLEKRLHQTHRLKECVAPVLSVLTECARMHRPARKFLKAQVLPPLRDVRTRPEVGDLLRNKLVRLMTHLDTDVKRVAAEFLFVLCSESVPRFIKYTGYGNAAGLLAARGLMAGGRPEGQYSEDEDTDTEEYREAKASI

Each binder was assayed against myristoylated Gαi1 harboring a hexahistidine tag in the helical domain (rat) (UniProt P10824).
Sequence of UniProt P10824 (P10824 whole entry, the tested form may be a part): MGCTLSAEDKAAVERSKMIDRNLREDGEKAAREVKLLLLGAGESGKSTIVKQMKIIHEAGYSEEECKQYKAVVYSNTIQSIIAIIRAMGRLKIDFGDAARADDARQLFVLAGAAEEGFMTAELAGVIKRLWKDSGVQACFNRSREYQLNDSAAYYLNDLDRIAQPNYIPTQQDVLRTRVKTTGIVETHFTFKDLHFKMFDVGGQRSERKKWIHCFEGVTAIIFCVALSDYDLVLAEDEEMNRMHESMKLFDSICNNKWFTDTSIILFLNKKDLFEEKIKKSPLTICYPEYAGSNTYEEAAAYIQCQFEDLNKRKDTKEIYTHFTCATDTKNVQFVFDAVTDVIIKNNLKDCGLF

In order of falling v1: initial velocity of GDP to GTPγS exchange at Gαi1•GDP (2 μM) on adding GTPγS (10 μM) and Ric-8A (2 μM), tryptophan fluorescence, 25°C:
1. B2  3.82 µM/min
2. B6  2.88 µM/min
3. B3  2.17 µM/min
4. B8  0.86 µM/min
5. B4  0.82 µM/min
6. B7  0.63 µM/min
7. B5  0.59 µM/min
8. B1  0.47 µM/min

In order of falling v2: initial rate of GTPγS binding to pre-formed Gαi1:Ric-8A (2 μM each, incubated 5 min before 10 μM GTPγS), with release of Ric-8A, tryptophan fluorescence, 25°C:
1. B2  6.23 µM/min
2. B6  5.39 µM/min
3. B3  4.57 µM/min
4. B8  0.39 µM/min
5. B1  0.34 µM/min
6. B7  0.26 µM/min
7. B4  0.25 µM/min
8. B5  0.24 µM/min
